Target: T1, B7330N-myc (myc-tagged B7330N expressed from pcDNA3.1-B7330N-myc in COS-7 cells) (human, UniProt Q8NCL4 1-622)
T1 construct: Expressed by transfection in COS-7 cells and tested in cell lysates; also called GALNT6; not shown: myc-his tag from the pcDNA3.1-myc-his vector (Invitrogen)
T1 sequence: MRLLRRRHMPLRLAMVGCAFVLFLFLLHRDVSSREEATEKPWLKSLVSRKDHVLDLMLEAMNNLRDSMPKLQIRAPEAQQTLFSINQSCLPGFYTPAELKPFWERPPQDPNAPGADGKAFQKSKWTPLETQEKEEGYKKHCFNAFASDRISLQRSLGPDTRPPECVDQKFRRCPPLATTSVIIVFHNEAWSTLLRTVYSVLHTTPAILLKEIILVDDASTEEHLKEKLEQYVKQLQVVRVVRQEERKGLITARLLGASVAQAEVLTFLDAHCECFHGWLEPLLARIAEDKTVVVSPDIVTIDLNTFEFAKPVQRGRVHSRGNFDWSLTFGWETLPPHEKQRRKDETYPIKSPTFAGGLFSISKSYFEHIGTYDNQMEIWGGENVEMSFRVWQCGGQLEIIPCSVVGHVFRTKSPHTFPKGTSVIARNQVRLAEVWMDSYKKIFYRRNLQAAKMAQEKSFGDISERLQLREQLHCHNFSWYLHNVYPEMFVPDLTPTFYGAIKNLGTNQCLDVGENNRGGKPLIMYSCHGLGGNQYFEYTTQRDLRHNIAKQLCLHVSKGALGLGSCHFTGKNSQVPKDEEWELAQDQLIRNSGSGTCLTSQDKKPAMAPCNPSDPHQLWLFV
Assay: co-immunoprecipitation from co-transfected COS-7 cells, anti-myc pull-down
Source text: To investigate that hypothesis, we designed two kinds of tagged-B7330N constructs to examine homo-oligomerization. pCAGGS-B7330N-HA and pcDNA3.1-B7330N-myc were co-transfected into COS-7 cells and co-immunoprecipitated using anti-HA or anti-myc antibody, respectively.

binding result: binds
B1: B7330N-HA (HA-tagged B7330N expressed from pCAGGS-B7330N-HA in COS-7 cells) (enzyme)
chain: MRLLRRRHMPLRLAMVGCAFVLFLFLLHRDVSSREEATEKPWLKSLVSRKDHVLDLMLEAMNNLRDSMPKLQIRAPEAQQTLFSINQSCLPGFYTPAELKPFWERPPQDPNAPGADGKAFQKSKWTPLETQEKEEGYKKHCFNAFASDRISLQRSLGPDTRPPECVDQKFRRCPPLATTSVIIVFHNEAWSTLLRTVYSVLHTTPAILLKEIILVDDASTEEHLKEKLEQYVKQLQVVRVVRQEERKGLITARLLGASVAQAEVLTFLDAHCECFHGWLEPLLARIAEDKTVVVSPDIVTIDLNTFEFAKPVQRGRVHSRGNFDWSLTFGWETLPPHEKQRRKDETYPIKSPTFAGGLFSISKSYFEHIGTYDNQMEIWGGENVEMSFRVWQCGGQLEIIPCSVVGHVFRTKSPHTFPKGTSVIARNQVRLAEVWMDSYKKIFYRRNLQAAKMAQEKSFGDISERLQLREQLHCHNFSWYLHNVYPEMFVPDLTPTFYGAIKNLGTNQCLDVGENNRGGKPLIMYSCHGLGGNQYFEYTTQRDLRHNIAKQLCLHVSKGALGLGSCHFTGKNSQVPKDEEWELAQDQLIRNSGSGTCLTSQDKKPAMAPCNPSDPHQLWLFV
modifications: N-glycosylated at Asn-476
notes: Expressed by transfection in COS-7 cells and tested in cell lysates; also called GALNT6; UDP-N-acetyl-alpha-D-galactosamine: polypeptide N-acetylgalactosaminyltransferase 6; not shown: C-terminal HA tag from the pCAGGS-HA vector

From patent publication US20090202543A1 (ONCOTHERAPY SCIENCE, published 2009)
